molecular target: T1, HLA-A*0201 molecule expressed on human T2 cells (human); experiment: T2 cells (HLA-A*0201), peptide at 0.1 µM, anti-HLA-A2 flow cytometry
T1 construct: also called HLA-A2
Procedure: (§1) T2 cells (5.104 cells per well) are incubated with decreasing concentrations of peptides from 100 μM to 0.1 μM (4 points: 100 μM, 10 μM, 1 μM, 0.1 μM) in serum-free medium (TexMacs) supplemented with […] of β2 Microglobulin at 37° C. for 16 hours. Cells are then washed two times and marked with the anti-HLA-A2 antibody coupled to PE (clone BB7.2, BD Pharmagen).
(§2) The relative affinity is then determined as follows: […]

LLFGAPALL (also called TNFRSF13-H1) [TNFRSF13C-H1] and TLAYLIFCL [CD19-H6] are the same in “mean relative fluorescence intensity (HIV peptide = 100)” value (from here on “mean relative fluorescence intensity”): 0 % of HIV pol 589-597 at 100 µM for the first, 0 % of HIV pol 589-597 at 100 µM for the second.

Compared with SLVGILHII [CD19-B11], AMNSLSLYI [MS4A1-B4] is higher in “mean relative fluorescence intensity” value: 0 % of HIV pol 589-597 at 100 µM for the first, 0.5 % of HIV pol 589-597 at 100 µM for the second.

Going from ILIPAGIYL [MS4A1-B3] to YILGGLLMV [MS4A1-B12], the “mean relative fluorescence intensity” value falls from 1.9 % of HIV pol 589-597 at 100 µM to 1.2 % of HIV pol 589-597 at 100 µM.

Compared with TLLFLTPML [CD19-B2], IMNSLSLFA [MS4A1-H4] is lower in “mean relative fluorescence intensity” value: 12 % of HIV pol 589-597 at 100 µM for the first, 0 % of HIV pol 589-597 at 100 µM for the second.

First: IALGGLLMI [MS4A1-H1]
Second: FLAFVPLQL (also called CD37-B1i) [CD37-B1]
The “mean relative fluorescence intensity” value of the first is lower: 0 % of HIV pol 589-597 at 100 µM for the first, 5 % of HIV pol 589-597 at 100 µM for the second.

molecular target: T1, HLA-A*0201 molecule expressed on human …; experiment: T2 cells (HLA-A*0201), anti-HLA-A2 flow cytometry

LIFEHPERV [CD22-B12]: binds.

molecular target: T1, HLA-A*0201 molecule expressed on human …; experiment: T2 cells (HLA-A*0201), peptide at 1 µM, anti-HLA-A2 flow cytometry
Procedure: as §1, §2

Compared with LLFGAPALL (also called TNFRSF13-H1) [TNFRSF13C-H1], TLAYLIFCL [CD19-H6] is higher in “mean relative fluorescence intensity” value: 2 % of HIV pol 589-597 at 100 µM for the first, 4.1 % of HIV pol 589-597 at 100 µM for the second.

Compared with SLVGILHII [CD19-B11], AMNSLSLYI [MS4A1-B4] is lower in “mean relative fluorescence intensity” value: 5.2 % of HIV pol 589-597 at 100 µM for the first, 1.9 % of HIV pol 589-597 at 100 µM for the second.

First: ILIPAGIYL [MS4A1-B3]
Second: FLLFLTPME [CD19-H2]
The “mean relative fluorescence intensity” value of the first is higher: 17.8 % of HIV pol 589-597 at 100 µM for the first, 3 % of HIV pol 589-597 at 100 µM for the second.

Going from YILGGLLMV [MS4A1-B12] to LLVGILHLV [CD19-B1], the “mean relative fluorescence intensity” value rises from 1.1 % of HIV pol 589-597 at 100 µM to 8 % of HIV pol 589-597 at 100 µM.

Going from TLLFLTPML [CD19-B2] to IMNSLSLFA [MS4A1-H4], the “mean relative fluorescence intensity” value falls from 41 % of HIV pol 589-597 at 100 µM to 0.3 % of HIV pol 589-597 at 100 µM.

First: IALGGLLMI [MS4A1-H1]
Second: FLAFVPLQL (also called CD37-B1i) [CD37-B1]
The “mean relative fluorescence intensity” value of the first is lower: 0.7 % of HIV pol 589-597 at 100 µM for the first, 35 % of HIV pol 589-597 at 100 µM for the second.

molecular target: T1, HLA-A*0201 molecule expressed on human …; experiment: T2 cells (HLA-A*0201), peptide titration, anti-HLA-A2 flow cytometry
Procedure: as §1, §2

First: ILNSLSLLL [MS4A1-B41]
Second: LLFGAPALL (also called TNFRSF13-H1) [TNFRSF13C-H1]
The “concentration of peptide that induces 20% of HLA-A2 expression” value of the first is 4.8-fold lower: 2.45 µM for the first, 11.8 µM for the second.

TLAYLIFCL [CD19-H6] and SLVGILHII [CD19-B11] are within 1.5-fold of each other in “concentration of peptide that induces 20% of HLA-A2 expression” value: 4.98 µM for the first, 5.97 µM for the second.

First: AMNSLSLYI [MS4A1-B4]
Second: ILIPAGIYL [MS4A1-B3]
The “concentration of peptide that induces 20% of HLA-A2 expression” value of the first is 18-fold higher: 12.3 µM for the first, 0.7 µM for the second.

Going from YILGGLLMV [MS4A1-B12] to LLVGILHLV [CD19-B1], the “concentration of peptide that induces 20% of HLA-A2 expression” value falls from 31.2 µM to 3.7 µM (8.4-fold).

First: TLLFLTPML [CD19-B2]
Second: FLAFVPLQL (also called CD37-B1i) [CD37-B1]
The “concentration of peptide that induces 20% of HLA-A2 expression” value of the first is 1.7-fold lower: 0.38 µM for the first, 0.65 µM for the second.

First: ILNSLSLLL [MS4A1-B41]
Second: LLFGAPALL (also called TNFRSF13-H1) [TNFRSF13C-H1]
The “in vitro binding affinity (relative to HIV pol reference peptide)” value of the first is lower: 0.3 ratio to HIV pol 589-597 for the first, 3 ratio to HIV pol 589-597 for the second.

Compared with TLAYLIFCL [CD19-H6], SLVGILHII [CD19-B11] is higher in “in vitro binding affinity (relative to HIV pol reference peptide)” value: 0.5 ratio to HIV pol 589-597 for the first, 0.8 ratio to HIV pol 589-597 for the second.

First: AMNSLSLYI [MS4A1-B4]
Second: ILIPAGIYL [MS4A1-B3]
The “in vitro binding affinity (relative to HIV pol reference peptide)” value of the first is higher: 2.1 ratio to HIV pol 589-597 for the first, 0.1 ratio to HIV pol 589-597 for the second.

Compared with YILGGLLMV [MS4A1-B12], LLVGILHLV [CD19-B1] is lower in “in vitro binding affinity (relative to HIV pol reference peptide)” value: 3.5 ratio to HIV pol 589-597 for the first, 0.7 ratio to HIV pol 589-597 for the second.

Compared with TLLFLTPML [CD19-B2], FLAFVPLQL (also called CD37-B1i) [CD37-B1] is higher in “in vitro binding affinity (relative to HIV pol reference peptide)” value: 1 ratio to HIV pol 589-597 for the first, 1.6 ratio to HIV pol 589-597 for the second.

molecular target: T1, HLA-A*0201 molecule expressed on human …; experiment: T2 cells (HLA-A*0201), peptide at 100 µM, anti-HLA-A2 flow cytometry
Procedure: as §1, §2

Going from LLFGAPALL (also called TNFRSF13-H1) [TNFRSF13C-H1] to SLVGILHII [CD19-B11], the “mean relative fluorescence intensity” value rises from 92 % of HIV pol 589-597 at 100 µM to 108 % of HIV pol 589-597 at 100 µM.

Compared with AMNSLSLYI [MS4A1-B4], ILIPAGIYL [MS4A1-B3] is lower in “mean relative fluorescence intensity” value: 115 % of HIV pol 589-597 at 100 µM for the first, 88.8 % of HIV pol 589-597 at 100 µM for the second.

Going from FLLFLTPME [CD19-H2] to YILGGLLMV [MS4A1-B12], the “mean relative fluorescence intensity” value rises from 7 % of HIV pol 589-597 at 100 µM to 42 % of HIV pol 589-597 at 100 µM.

Going from LLVGILHLV [CD19-B1] to IMNSLSLFA [MS4A1-H4], the “mean relative fluorescence intensity” value falls from 93 % of HIV pol 589-597 at 100 µM to 13.4 % of HIV pol 589-597 at 100 µM.

FLAFVPLQL (also called CD37-B1i) [CD37-B1] was tested, and the “mean relative fluorescence intensity” value was 157 % of HIV pol 589-597 at 100 µM.

molecular target: T1, HLA-A*0201 molecule expressed on human …; experiment: T2 cells (HLA-A*0201), peptide at 10 µM, anti-HLA-A2 flow cytometry
Procedure: as §1, §2

Going from LLFGAPALL (also called TNFRSF13-H1) [TNFRSF13C-H1] to TLAYLIFCL [CD19-H6], the “mean relative fluorescence intensity” value rises from 17 % of HIV pol 589-597 at 100 µM to 39.6 % of HIV pol 589-597 at 100 µM.

Going from SLVGILHII [CD19-B11] to AMNSLSLYI [MS4A1-B4], the “mean relative fluorescence intensity” value falls from 30.5 % of HIV pol 589-597 at 100 µM to 13.1 % of HIV pol 589-597 at 100 µM.

First: ILIPAGIYL [MS4A1-B3]
Second: FLLFLTPME [CD19-H2]
The “mean relative fluorescence intensity” value of the first is higher: 87.8 % of HIV pol 589-597 at 100 µM for the first, 7 % of HIV pol 589-597 at 100 µM for the second.

Compared with YILGGLLMV [MS4A1-B12], LLVGILHLV [CD19-B1] is higher in “mean relative fluorescence intensity” value: 7.6 % of HIV pol 589-597 at 100 µM for the first, 40 % of HIV pol 589-597 at 100 µM for the second.

Compared with TLLFLTPML [CD19-B2], IMNSLSLFA [MS4A1-H4] is lower in “mean relative fluorescence intensity” value: 114 % of HIV pol 589-597 at 100 µM for the first, 2.6 % of HIV pol 589-597 at 100 µM for the second.

Going from IALGGLLMI [MS4A1-H1] to FLAFVPLQL (also called CD37-B1i) [CD37-B1], the “mean relative fluorescence intensity” value rises from 1.9 % of HIV pol 589-597 at 100 µM to 106 % of HIV pol 589-597 at 100 µM.

— US20220323561A1 (ENTEROME S A, published 2022)
